According to article PMC6220978, “Induced conformational changes activate the peptidoglycan synthase PBP1B” (Molecular Microbiology, 2018):
Residue numbers refer to the chain shown, from its start.

What was measured:
Assay in all cases: SPR; PBP1B versions immobilised to the chip surface; CpoB versions injected from either 3.9 nM to 2 μM or from 78 nM to 40 μM; apparent KD by non-linear regression, at least three independent experiments
Conditions in all cases: both partners purified
[1] = molecular target: T1, PBP1B D443A (E. coli, UniProt P02919 46-844, D443A)
T1 construct: PBP1B, E. coli, residues 46-844, made by mutagenesis of pDML924; source: E. coli BL21(DE3), purified (membrane extract, HisTrap, thrombin, HiTrap SP ion exchange)
T1 sequence (looked up): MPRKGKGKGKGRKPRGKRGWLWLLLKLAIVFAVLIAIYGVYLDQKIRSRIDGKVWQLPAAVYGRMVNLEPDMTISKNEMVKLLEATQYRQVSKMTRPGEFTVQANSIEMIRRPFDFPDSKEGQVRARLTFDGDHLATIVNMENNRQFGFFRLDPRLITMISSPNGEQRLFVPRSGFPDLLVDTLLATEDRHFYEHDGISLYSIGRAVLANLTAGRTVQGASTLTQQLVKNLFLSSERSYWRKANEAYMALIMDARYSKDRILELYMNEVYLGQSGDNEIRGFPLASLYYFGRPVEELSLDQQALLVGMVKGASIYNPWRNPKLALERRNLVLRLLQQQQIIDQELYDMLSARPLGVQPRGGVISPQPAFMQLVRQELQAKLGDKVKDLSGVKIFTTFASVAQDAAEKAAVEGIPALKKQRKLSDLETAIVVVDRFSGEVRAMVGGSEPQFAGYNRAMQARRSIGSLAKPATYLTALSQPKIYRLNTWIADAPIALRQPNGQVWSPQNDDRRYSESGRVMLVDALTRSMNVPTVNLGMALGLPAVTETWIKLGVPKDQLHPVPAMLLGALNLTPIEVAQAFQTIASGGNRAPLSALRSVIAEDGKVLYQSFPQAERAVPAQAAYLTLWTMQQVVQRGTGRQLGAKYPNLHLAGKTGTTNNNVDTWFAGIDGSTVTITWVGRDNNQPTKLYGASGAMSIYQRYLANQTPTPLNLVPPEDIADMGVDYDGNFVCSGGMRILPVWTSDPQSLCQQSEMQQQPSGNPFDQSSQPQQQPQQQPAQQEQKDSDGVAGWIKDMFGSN

[2] = molecular target: T2, PBP1B E341A (E. coli, UniProt P02919 46-844, E341A)
T2 construct: PBP1B, E. coli, residues 46-844, made by mutagenesis of pDML924; source: E. coli BL21(DE3), purified (membrane extract, HisTrap, thrombin, HiTrap SP ion exchange)
T2 sequence (looked up): T1 sequence (looked up) with E296A, A398D

[3] = molecular target: T3, PBP1B R157A (E. coli, UniProt P02919 46-844, R157A)
T3 construct: PBP1B, E. coli, residues 46-844, made by mutagenesis of pDML924; source: E. coli BL21(DE3), purified (membrane extract, HisTrap, thrombin, HiTrap SP ion exchange)
T3 sequence (looked up): T1 sequence (looked up) with R112A, A398D

B1: CpoB (full length) (natural protein, E. coli, UniProt P45955 27-263, looked up)
chain: QAPISSVGSGSVEDRVTQLERISNAHSQLLTQLQQQLSDNQSDIDSLRGQIQENQYQLNQVVERQKQILLQIDSLSSGGAAAQSTSGDQSGAAASTTPTADAGTANAGAPVKSGNANTDYNAAIALVQDKSRQDDAMVAFQNFIKNYPDSTYLPNANYWLGQLNYNKGKKDDAAYYFASVVKNYPKSPKAADAMFKVGVIMQDKGDTAKAKAVYQQVISKYPGTDGAKQAQKRLNAM
notes: CpoB, E. coli; The coiled-coil construct begins at residue 27, so the purified 'full length' protein may lack the signal peptide (surmise); source: E. coli BL21(DE3), purified (HisTrap, Superdex 200), as in Gray et al. 2015
Kd [1]: 95 nM
Kd [2]: 77 nM
Kd [3]: 147 nM
